Assay results taken from patent publication US20090137002A1 (published 2009).

B1: MOR03640 Fab (Fab, V domains shown)
VH: QVQLVESGGGLVQPGGSLRLSCAASGFTFNNSWMSWVRQAPGKGLEWVSNITSSSSMTHYADSVKGRFTISRDNSKNTLYLQMNSLRAEDTAVYYCARKGMSFYNNKYAKSMFDLWGQGTLVTVSS
VL: DIELTQPPSVSVAPGQTARISCSGDNLGKKYVHWYQQKPGQAPVLVIYYDSKRPSGIPERFSGSNSGNTATLTISGTQAEDEADYYCSAWTTTMMHIVFGGGTKLTVLG
notes: Monomeric HuCAL Fab, purified, MH-tagged
B2: MOR03641 Fab (Fab, V domains shown)
VH: QVQLVQSGAEVKKPGSSVKVSCKASGGTFSTYAISWVRQAPGQGLEWMGRIIPIFGTANYAQKFQGRVTITADESTSTAYMELSSLRSEDTAVYYCARSSYTILTTYYNYNAMDNWGQGTLVTVSS
VL: DIQMTQSPSSLSASVGDRVTITCRASQNINNFLNWYQQKPGKAPKLLIYGSSILQSGVPSRFSGSGSGTDFTLTISSLQPEDFAVYYCHQVSDTSDTFGQGTKVEIKR
notes: Monomeric HuCAL Fab (VH1A, kappa1), purified, MH-tagged; also called 3541 [sic]
B3: MOR03639 Fab (Fab, V domains shown)
VH: QVQLVESGGGLVQPGGSLRLSCAASGFTFSNYYLHWVRQAPGKGLEWVSGISYSGSSTYYADSVKGRFTISRDNSKNTLYLQMNSLRAEDTAVYYCARFYQRRQIPHGYDVWGQGTLVTVSS
VL: DIELTQPPSVSVAPGQTARISCSGDNIGDYYVHWYQQKPGQAPVLVIYRDSNRPSGIPERFSGSNSGNTATLTISGTQAEDEADYYCGSYDMPFGGTVFGGGTKLTVLG
notes: Monomeric HuCAL Fab (VH3, lambda3), purified, MH-tagged

What was measured:
[1] = target: T1, myc-tagged human EphB4 on transfected CHO cells (human, UniProt P54760 16-987); assay: FACS competition on CHO-hEphB4 cells, competitor biotinylated mEphrinB2 250 ng/mL
T1 construct: whole, on cells; also called CHO-EphB4; CHO-hEphB4; not shown: myc tag
T1 sequence (looked up): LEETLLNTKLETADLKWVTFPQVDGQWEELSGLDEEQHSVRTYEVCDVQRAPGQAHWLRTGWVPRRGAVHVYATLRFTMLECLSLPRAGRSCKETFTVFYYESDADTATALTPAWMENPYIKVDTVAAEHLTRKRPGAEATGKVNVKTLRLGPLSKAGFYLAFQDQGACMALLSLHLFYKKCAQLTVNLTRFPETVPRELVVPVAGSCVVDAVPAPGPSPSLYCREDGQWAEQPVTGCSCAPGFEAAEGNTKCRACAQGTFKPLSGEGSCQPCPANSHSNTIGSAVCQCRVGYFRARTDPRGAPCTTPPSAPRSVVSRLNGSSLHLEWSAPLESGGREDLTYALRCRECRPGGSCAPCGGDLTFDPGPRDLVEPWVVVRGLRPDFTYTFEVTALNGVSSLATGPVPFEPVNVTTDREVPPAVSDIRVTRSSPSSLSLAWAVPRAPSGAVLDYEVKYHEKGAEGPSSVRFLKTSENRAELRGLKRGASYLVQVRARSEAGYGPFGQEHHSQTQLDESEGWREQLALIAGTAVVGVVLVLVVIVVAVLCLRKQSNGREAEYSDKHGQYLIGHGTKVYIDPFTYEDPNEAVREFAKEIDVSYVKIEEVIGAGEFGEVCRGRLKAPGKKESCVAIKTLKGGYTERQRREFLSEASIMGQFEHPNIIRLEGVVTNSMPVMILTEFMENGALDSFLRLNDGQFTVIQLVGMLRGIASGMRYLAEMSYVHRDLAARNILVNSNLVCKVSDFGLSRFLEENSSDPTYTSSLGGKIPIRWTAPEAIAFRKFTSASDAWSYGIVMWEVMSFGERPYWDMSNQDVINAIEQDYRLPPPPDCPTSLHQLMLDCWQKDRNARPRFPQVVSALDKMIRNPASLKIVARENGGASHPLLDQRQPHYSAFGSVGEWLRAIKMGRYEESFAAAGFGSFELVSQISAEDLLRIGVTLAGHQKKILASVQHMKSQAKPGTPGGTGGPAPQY
Protocol: CHO-hEphB4 cells were trypsinized, washed and resuspended in FACS buffer (PBS/1% BSA) containing anti-EphB4 antibody at different concentrations and incubated at 4° C. for 30 min. Cells were washed in FACS buffer and resuspended in FACS buffer containing biotinylated mEphrinB2 at 250 ng/mL and incubated at 4° C. for 1 hr. cells were washed in FACS buffer and resuspended in FACS buffer containing Streptavidin-PE and incubated at 4° C. for 30 min. After a final wash step, cell staining was analyzed in a Becton Dickinson FACS.

[2] = target: T2, recombinant human EphB4-Fc fusion protein (human, UniProt P54760 16-539); assay: competition ELISA, Fab against EphrinB2-Fc on immobilized human EphB4
T2 construct: extracellular domain; also called hEphB4; hu EphB4-Fc
T2 sequence (looked up): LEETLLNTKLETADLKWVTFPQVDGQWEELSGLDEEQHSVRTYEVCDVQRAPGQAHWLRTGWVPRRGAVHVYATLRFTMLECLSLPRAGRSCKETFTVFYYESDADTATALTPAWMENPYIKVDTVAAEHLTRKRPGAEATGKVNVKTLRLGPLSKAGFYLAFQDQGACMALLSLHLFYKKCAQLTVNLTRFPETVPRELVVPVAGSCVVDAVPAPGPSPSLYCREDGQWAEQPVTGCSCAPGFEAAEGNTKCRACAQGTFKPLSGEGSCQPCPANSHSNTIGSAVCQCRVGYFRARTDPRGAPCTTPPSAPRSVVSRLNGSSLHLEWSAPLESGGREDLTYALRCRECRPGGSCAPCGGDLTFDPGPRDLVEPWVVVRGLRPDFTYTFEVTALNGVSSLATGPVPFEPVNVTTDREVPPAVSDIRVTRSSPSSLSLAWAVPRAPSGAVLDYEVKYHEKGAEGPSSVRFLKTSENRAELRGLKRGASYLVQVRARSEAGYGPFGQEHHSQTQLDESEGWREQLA
Protocol: (§1) IC₅₀ values were determined using recombinant antigen (murine and human EphB4) in an ELISA and on transfected cells in a FACS analysis (human EphB4 receptor).
(§2) Binding of (a fixed concentration of) the ligand EphrinB2-Fc to immobilized EphB4 receptor on an ELISA plate or on transfected cells is titrated with anti-EphB4 Fab. The IC₅₀ is determined as the amount of Fab at which the binding of EphrinB2 is inhibited by 50%.

[3] = target: T1, myc-tagged human EphB4 on transfected …; assay: FACS, Fab against EphrinB2-Fc on hEphB4-transfected cells
Protocol: as §1, §2

[4] = target: T3, recombinant murine EphB4-Fc fusion protein (mouse, UniProt P54761 16-539); assay: competition ELISA, Fab against EphrinB2-Fc on immobilized murine EphB4
T3 construct: extracellular domain; also called mEphB4; mu EphB4; not shown: Fc part, not described
T3 sequence (looked up): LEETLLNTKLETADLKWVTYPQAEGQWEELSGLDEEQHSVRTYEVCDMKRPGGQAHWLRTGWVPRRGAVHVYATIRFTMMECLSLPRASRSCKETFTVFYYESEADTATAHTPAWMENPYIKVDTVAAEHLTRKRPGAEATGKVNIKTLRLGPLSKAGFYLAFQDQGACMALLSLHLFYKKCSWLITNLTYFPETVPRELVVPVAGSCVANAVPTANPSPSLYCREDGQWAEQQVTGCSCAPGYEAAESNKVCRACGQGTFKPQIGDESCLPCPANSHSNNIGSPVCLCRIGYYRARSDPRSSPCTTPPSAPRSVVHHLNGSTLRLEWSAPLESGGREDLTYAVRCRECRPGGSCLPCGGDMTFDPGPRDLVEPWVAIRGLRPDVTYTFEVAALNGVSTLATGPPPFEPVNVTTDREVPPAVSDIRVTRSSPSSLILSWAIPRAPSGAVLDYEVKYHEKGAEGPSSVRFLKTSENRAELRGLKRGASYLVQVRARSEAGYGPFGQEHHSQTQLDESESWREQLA
Protocol: as §1, §2

[5] = target: T2, recombinant human EphB4-Fc fusion …; assay: ELISA

IC50 (read off the curve) [1] [µg/mL] | IC50 [2] [µg/mL] | IC50 [3] [µg/mL] | IC50 [4] [µg/mL] | ELISA signal above background [5] [fold] | Binder
~0.4 | 33 | 2.1 | 117 | 10 | B1
~1 | 5 | 4.4 | 24 | 10 | B2
~2 | 65 | 2.8 | 22 | 10 | B3
